Results as given in IntAct's records for PubMed 9374523.

B1: MutS protein homolog 5 (Saccharomyces cerevisiae), Q12175 (parent)
chain: MSHEWLISASETMRSIGNGEGLRDKGAVVANNDGEFNEGDTNREEDSSTIFSFDFDEEIVMCIDFSGGKLGCSILDYHTKTLKAFDQDYVVNKTTISSHDLIDDADMSSNDISLLLGLLIMEANPTVCLVPARLEDWIFDYIKTKCDEINCRLELQPIKRFKKWDLLQSLQLRGHDNQTILNDILSNSKFTTTVTLGTVGCILANHEQLGEYNDSTASSNMVTGRLVQNAFEDVIHGIRYIDIRDRMVLDENTISALHIFPTAHKLGHDKMMRNGFFSVFELFNQVSSDYARRILKSWLINPLTNKKRIETRYSIIRTLLDKQNAIIFSDLSQSIKRCPDAFGFINQLRSGKSTLGTWSKVASFLEKGIAIFQLVSSLKLGSDEANILHDIKNKVDISALKECLRKVETVIDFDTSRDTKTLTINTGVDNRLDECRNIYNHLEGILLDVARETQIFLLNTMPQEDCKTTKSLEKLVNAVYIPQLGYLVTISVLMEPLLDGIPNLQWEEIFRSSENIYFKNGRVLELDETYGDIYGAISDFEIEILFSLQEQILRRKTQLTAYNILLSELEILLSFAQVSAERNYAEPQLVEDECILEIINGRHALYETFLDNYIPNSTMIDGGLFSELSWCEQNKGRIIVVTGANASGKSVYLTQNGLIVYLAQIGCFVPAERARIGIADKILTRIRTQETVYKTQSSFLLDSQQMAKSLSLATEKSLILIDEYGKGTDILDGPSLFGSIMLNMSKSEKCPRIIACTHFHELFNENVLTENIKGIKHYCTDILISQKYNLLETAHVGEDHESEGITFLFKVKEGISKQSFGIYCAKVCGLSRDIVERAEELSRMINRGDDVVQQCGNLTEKEMREFQKNQEIVKKFLSWDLDLETTTTSENLRLKLKNFLR
partner: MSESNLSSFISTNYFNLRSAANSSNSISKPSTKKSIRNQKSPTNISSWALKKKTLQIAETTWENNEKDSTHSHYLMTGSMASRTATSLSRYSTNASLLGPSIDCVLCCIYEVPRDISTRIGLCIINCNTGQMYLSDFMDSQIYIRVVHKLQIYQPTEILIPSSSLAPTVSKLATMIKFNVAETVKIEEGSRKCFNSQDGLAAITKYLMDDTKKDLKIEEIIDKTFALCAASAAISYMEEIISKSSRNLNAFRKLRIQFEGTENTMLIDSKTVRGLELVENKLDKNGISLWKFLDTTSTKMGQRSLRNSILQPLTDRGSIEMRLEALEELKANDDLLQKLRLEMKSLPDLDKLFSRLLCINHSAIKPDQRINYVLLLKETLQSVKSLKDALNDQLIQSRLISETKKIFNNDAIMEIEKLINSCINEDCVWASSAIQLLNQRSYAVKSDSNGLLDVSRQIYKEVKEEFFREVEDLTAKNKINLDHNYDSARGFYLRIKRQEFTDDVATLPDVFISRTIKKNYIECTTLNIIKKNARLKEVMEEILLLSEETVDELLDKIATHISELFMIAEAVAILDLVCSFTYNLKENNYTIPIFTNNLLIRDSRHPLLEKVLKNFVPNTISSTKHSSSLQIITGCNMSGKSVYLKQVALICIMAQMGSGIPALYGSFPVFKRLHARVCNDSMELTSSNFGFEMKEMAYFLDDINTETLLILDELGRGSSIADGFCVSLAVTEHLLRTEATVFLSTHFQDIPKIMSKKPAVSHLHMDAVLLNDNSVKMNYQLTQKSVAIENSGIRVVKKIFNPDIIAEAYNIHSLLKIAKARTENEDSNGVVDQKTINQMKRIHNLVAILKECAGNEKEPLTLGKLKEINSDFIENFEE

Variants of: B1
Settings: with msh4_yeast MSH4, P40965

Effect of a mutation on the interaction, with no effect:
A644V
G643D
G821D
G648R
